The target of experiment [1] is T1, human TGFβ2, mature receptor-binding domain (human, UniProt P09858 303-414 (pig entry), The mature TGFβ2 is a disulfide-linked homodimer of this 112-residue chain. The 4A11 epitope spans both monomers (p-1207).).
T1 construct: Peprotech; also called TGFb2
T1 sequence: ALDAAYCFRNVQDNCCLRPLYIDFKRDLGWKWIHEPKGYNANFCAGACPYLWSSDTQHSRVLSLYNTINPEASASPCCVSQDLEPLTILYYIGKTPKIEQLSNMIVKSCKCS
The experiment in a line: BIAcore T200. On the procedure: (§1) For binding affinity determinations of all humanized 2A10 antibodies, Surface Plasmon Resonance (SPR) measurement with a BIAcore™-T200 instrument was used. Briefly, series S CM5 biosensor chip with protein A was first applied to capture each humanized 2A10 variant to achieve approximately 100 response units (RU) on each flow cell, following by injection of 3-fold serial dilutions of human TGFβ1, TGFβ2 or TGFβ3 (0.02 nM to 5 nM) in HBS-EP buffer (0.01M HEPES pH 7.4, 0.15M NaCl, 3 mM EDTA and 0.05% v/v surfactant P20) at 25° C. with a flow rate of 50 μl/min for kinetics measurement. Association rates (ko.) and dissociation rates (koff) were calculated using a simple one-to-one Langmuir binding model (BIAcore T200 evaluation software version 2.0) to determine the equilibrium dissociation constant (KD), which was calculated as the ratio koff/kₒₙ.
(In general: SPR reads the build-up and loss of mass on a sensor chip optically.)

Experiment [2] addresses T2, human TGFβ3, mature dimeric form (human, UniProt P10600 301-412).
T2 construct: Peprotech, expressed in E. coli; also called TGFb3
T2 sequence: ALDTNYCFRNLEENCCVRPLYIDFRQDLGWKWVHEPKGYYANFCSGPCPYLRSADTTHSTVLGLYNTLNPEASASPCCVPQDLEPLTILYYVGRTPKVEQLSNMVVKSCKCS
The experiment in a line: BIAcore T200. Here is the method:
as §1

Experiment [3] has as its target T3, human TGFβ1, mature receptor-binding domain (human, UniProt P01137 279-390). Put plainly: cell-based or functional assay.
For experiment [4], the target named is T1, human TGFβ2, mature receptor-binding …. The experiment in a line: cell-based or functional assay.
The target of experiment [5] is T2, human TGFβ3, mature dimeric form. Put plainly: cell-based or functional assay.
Experiment [6] has as its target T3, human TGFβ1, mature receptor-binding …. The experiment in a line: cell-based or functional assay. The source holds these as a separate data set.
Experiment [7] has as its target T1, human TGFβ2, mature receptor-binding …. Put plainly: cell-based or functional assay. This is another data set of the same source.
Experiment [8] has as its target T2, human TGFβ3, mature dimeric form. Put plainly: cell-based or functional assay. This is another data set of the same source.
In experiment [9] the target is T1, human TGFβ2, mature receptor-binding …. Put plainly: BIAcore T200. Here is the method:
as §1
(§2) Binding affinity determinations of all humanized 4A11 antibodies were performed using SPR measurement with a BIAcore™-T200 instrument, as described above in Example 6 ([…]).
This is another data set of the same source.

In experiment [10] the target is T2, human TGFβ3, mature dimeric form. Put plainly: BIAcore T200. Here is the method:
as §1, §2
This is another data set of the same source.

Like-named read-outs stand apart in the source and are kept apart here.

T3 sequence (P01137 279-390 limits assumed): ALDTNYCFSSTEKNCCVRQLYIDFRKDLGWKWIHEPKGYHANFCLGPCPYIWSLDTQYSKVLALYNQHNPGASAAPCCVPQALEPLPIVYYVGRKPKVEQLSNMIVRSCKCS

B1: h2A10.v2.6 (antibody, human IgG1, kappa, N297G, V domains shown)
VH: EVQLLESGGGLVQPGGSLRLSCAASGFDFNSYGMSWVRQAPGKGLELVSDIVSKTYNYTTYYSDSVKDRFTISRDDSKSTVYLQMNSLRAEDTAVYYCTVAPGGSFDYWGQGTLVTVSS
VL: DIQLTQSPSSLSASVGDRVTITCRASQSVSISRFNLMHWYQHKPGKQPKLLIYRASNLASGIPSRFSGSGSGTDFTLTISSLQPEDFATYYCQHSRESPWTFGGGTKVEIKR
With B1, the dissociation constant (Kd) came to 0.249 nM in [1] and 0.0015 nM in experiment [2]. The “HEKBlue TGFβ blocking IC50” value in experiment [3] was over 200 nM; in experiment [4] it was over 200 nM; in [5], 0.01 nM.

B2: h2A10.v2.9 (antibody, human IgG1, kappa, N297G, V domains shown)
VH: EVQLLESGGGLVQPGGSLRLSCAASGFDFNSYGMSWVRQAPGKGLELVADIVSKTYNYTTYYSDSVKDRFTISRDDSKSTLYLQMNSLRAEDTAVYYCTVAPGGSFDYWGQGTLVTVSS
VL: DIQLTQSPSSLSASVGDRVTITCRASQSVSISRFNLMHWYQHKPGKQPKLLIYRASNLASGIPSRFSGSGSGTDFTLTISSLQPEDFATYYCQHSRESPWTFGGGTKVEIKR
Turning to B2, the Kd in experiment [1] was 0.768 nM; in experiment [2], 0.0007 nM. Also, the “HEKBlue TGFβ blocking IC50” value was over 200 nM in experiment [3], over 200 nM in [4] and 0.01 nM in [5].

B3: h2A10.v2.8 (antibody, human IgG1, kappa, N297G, V domains shown)
VH: EVQLLESGGGLVQPGGSLRLSCAASGFDFNSYGMSWVRQAPGKGLELVADIVSKTYNYTTYYSDSVKDRFTISRDDSKNTVYLQMNSLRAEDTAVYYCTVAPGGSFDYWGQGTLVTVSS
VL: DIQLTQSPSSLSASVGDRVTITCRASQSVSISRFNLMHWYQHKPGKQPKLLIYRASNLASGIPSRFSGSGSGTDFTLTISSLQPEDFATYYCQHSRESPWTFGGGTKVEIKR
Take B3: the figures for the Kd in [1] and in experiment [2] were 0.365 nM and 0.0012 nM, respectively. The “HEKBlue TGFβ blocking IC50” value in experiment [3] is over 200 nM; in [4], over 200 nM; in [5], 0.01 nM.

B4: h4A11.v4 (antibody, human IgG1, kappa, N297G, V domains shown)
VH: EQQLQESGPGLVKPSETLSLTCTVTGFSLSSYTVNWVRQPAGKGLEWIGYISYGGSAYYASWANGRFTISKDSSKNQVSLKLSSVTAADTAVYFCARHMQVGGAPTGSMAAFDPWGPGTLVTVSS
VL: DAQLTQSPSSLSASVGDRVTITCQSSQSVYNNNYLSWFQQKPGKPPKLLIYGASTLTSGVPSRFSGSGSGTDFTLTISSLQPEDFATYYCAGGYSGSSDKYAFGGGTKVEIKR
Take B4: the “HEKBlue TGFβ blocking IC50” value is over 200 nM in [6], 1.9 nM in experiment [7] and 0.08 nM in experiment [8]. Moreover, the values for the equilibrium dissociation constant (Kd) in experiment [9] and in experiment [10] were 0.01 nM and 0.0101 nM, respectively.

B5: h4A11.v8 (antibody, V domains shown)
VH: EQQLQESGPGLVKPSETLSLTCTVTGFSLSSYTVNWVRQPAGKGLEWIGYISYGGSAYYASWANGRFTISKDSSKNQVSLKLSSVTAADTAVYFCARHMQVGGAPTGSMAAFDPWGPGTLVTVSS
VL: DAVLTQTPLSSPVTLGQPASISCQSSQSVYNNNYLSWFQQRPGQPPRLLIYGASTLTSGVPDRFSGSGAGTDFTLKISRVEAEDVGVYYCAGGYSGSSDKYAFGGGTKVEIK
As for B5, the “HEKBlue TGFβ blocking IC50” value in experiment [6] was over 200 nM; in experiment [7], over 200 nM; in experiment [8] it was 0.66 nM. For the same molecule, the Kd in experiment [9] turned out to be 0.0082 nM; in [10] it was 0.0141 nM.

B6: h4A11.v1 (antibody, human IgG1, kappa, N297G, V domains shown)
VH: EQQLVESGGGLVQPGGSLRLSCAVSGFSLSSYTVNWVRQAPGKGLEWIGYISYGGSAYYASWANGRFTISKDSAKNSVYLQMNSLRAEDTAVYFCARHMQVGGAPTGSMAAFDPWGPGTLVTVSS
VL: DAVLTQSPDSLAVSLGERATINCQSSQSVYNNNYLSWFQQKPGQPPKLLIYGASTLTSGVPDRFSGSGSGTDFTLTISSLQAEDVAVYYCAGGYSGSSDKYAFGGGTKVEIKR
As for B6, the “HEKBlue TGFβ blocking IC50” value in [6], in experiment [7] and in experiment [8] was over 200 nM throughout. The values for the Kd in experiment [9] and in experiment [10] were 0.0046 nM and 0.0144 nM, respectively.

B7: h4A11.v2 (antibody, human IgG1, kappa, N297G, V domains shown)
VH: EQQLVESGGGLVQPGGSLRLSCAVSGFSLSSYTVNWVRQAPGKGLEWIGYISYGGSAYYASWANGRFTISKDSAKNSVYLQMNSLRAEDTAVYFCARHMQVGGAPTGSMAAFDPWGPGTLVTVSS
VL: DAQLTQSPSSLSASVGDRVTITCQSSQSVYNNNYLSWFQQKPGKPPKLLIYGASTLTSGVPSRFSGSGSGTDFTLTISSLQPEDFATYYCAGGYSGSSDKYAFGGGTKVEIKR
With B7, the “HEKBlue TGFβ blocking IC50” value in experiment [6], in experiment [7] and in experiment [8] was over 200 nM each time. Besides, the Kd was 0.0014 nM in experiment [9] and 0.0133 nM in experiment [10].

B8: h4A11.v3 (antibody, human IgG1, kappa, N297G, V domains shown)
VH: EQQLQESGPGLVKPSETLSLTCTVTGFSLSSYTVNWVRQPAGKGLEWIGYISYGGSAYYASWANGRFTISKDSSKNQVSLKLSSVTAADTAVYFCARHMQVGGAPTGSMAAFDPWGPGTLVTVSS
VL: DAVLTQSPDSLAVSLGERATINCQSSQSVYNNNYLSWFQQKPGQPPKLLIYGASTLTSGVPDRFSGSGSGTDFTLTISSLQAEDVAVYYCAGGYSGSSDKYAFGGGTKVEIKR
Turning to B8, the “HEKBlue TGFβ blocking IC50” value is over 200 nM in experiment [6], 3.9 nM in experiment [7] and 0.23 nM in experiment [8]. In addition, the results for the Kd in [9] and in [10] were 0.0096 nM and 0.0121 nM, respectively.

B9: h4A11.v6 (antibody, human IgG1, kappa, N297G, V domains shown)
VH: EQQLVESGGGLVQPGGSLRLSCAVSGFSLSSYTVNWVRQAPGKGLEWIGYISYGGSAYYASWANGRFTISKDSAKNSVYLQMNSLRAEDTAVYFCARHMQVGGAPTGSMAAFDPWGPGTLVTVSS
VL: DAVLTQTPLSSPVTLGQPASISCQSSQSVYNNNYLSWFQQRPGQPPRLLIYGASTLTSGVPDRFSGSGAGTDFTLKISRVEAEDVGVYYCAGGYSGSSDKYAFGGGTKVEIKR
B9: the “HEKBlue TGFβ blocking IC50” value was over 200 nM in [6], over 200 nM in [7] and 6.7 nM in [8]. In addition, the Kd amounted to 0.0084 nM in [9] and 0.0125 nM in experiment [10].

B10: h4A11.v5 (antibody, human IgG1, kappa, N297G, V domains shown)
VH: EQQLVESGGGLVQPGGSLRLSCAVSGFSLSSYTVNWVRQAPGKGLEWIGYISYGGSAYYASWANGRFTISKDSAKNSVYLQMNSLRAEDTAVYFCARHMQVGGAPTGSMAAFDPWGPGTLVTVSS
VL: EAVLTQSPGTLSLSPGERATLSCQSSQSVYNNNYLSWFQQKPGQPPRLLIYGASTLTSGVPDRFSGSGSGTDFTLTISRLEPEDFAVYYCAGGYSGSSDKYAFGGGTKVEIKR
On to B10, for which the “HEKBlue TGFβ blocking IC50” value in experiment [6] was over 200 nM; in experiment [7], over 200 nM; in [8], 1.4 nM. Besides, the dissociation constant (Kd) came to 0.0121 nM in [9] and 0.0139 nM in experiment [10].

As usually defined, the Kd is the free concentration of one partner at which half of the binding sites on the other are occupied at equilibrium, for simple one-to-one binding. A lower Kd goes with tighter binding.

The values above are taken from US20210301005A1 (Genentech, published 2021).
